Source: patent publication US20140241984A1 (UNITED ARAB EMIRATES UNIVERSITY, published 2014)

T1: IAPP fibrils (UniProt P10997 34-70)
T1 construct: Amyloid fibrils of IAPP spotted in the dot blot; also called islet amyloid polypeptide
T1 peptide (looked up): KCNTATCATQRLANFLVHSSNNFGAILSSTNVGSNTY

T2: IAPP monomers (UniProt P10997 34-70)
T2 peptide (looked up): T1 peptide (looked up)

T3: fibrils of NAC (61-78) (human)
T3 construct: also called NAC (61-78) (F)
T3 peptide: EQVTNVGGAVVTGVTAVA

T4: α-synuclein peptide 3 (15-28) (human)
T4 construct: also called Peptide No. 3
T4 peptide: VVAAAEKTKQGVAE

T5: α-synuclein peptide 14 (92-105) (human)
T5 construct: also called Peptide No. 14
T5 peptide: TGFVKKDQLGKNEE

T6: α-synuclein peptide 7 (43-56) (human)
T6 construct: also called Peptide No. 7
T6 peptide: KTKEGVVHGVATVA

T7: α-synuclein peptide 6 (36-49) (human)
T7 construct: also called Peptide No. 6
T7 peptide: GVLYVGSKTKEGVV

T8: α-synuclein peptide 8 (50-63) (human)
T8 construct: also called Peptide No. 8
T8 peptide: HGVATVAEKTKEQV

T9: α-synuclein peptide 13 (85-98) (human)
T9 construct: also called Peptide No. 13
T9 peptide: AGSIAAATGFVKKD

T10: α-synuclein peptide 10 (64-77) (human)
T10 construct: also called Peptide No. 10
T10 peptide: TNVGGAVVTGVTAV

T11: α-synuclein peptide 17 (113-126) (human)
T11 construct: also called Peptide No. 17
T11 peptide: LEDMPVDPDNEAYE

T12: α-synuclein peptide 15 (99-112) (human)
T12 construct: also called Peptide No. 15
T12 peptide: QLGKNEEGAPQEGI

T13: α-synuclein peptide 2 (8-21) (human)
T13 construct: also called Peptide No. 2
T13 peptide: LSKAKEGVVAAAEK

T14: α-synuclein peptide 11 (71-84) (human)
T14 construct: also called Peptide No. 11
T14 peptide: VTGVTAVAQKTVEG

T15: α-synuclein peptide 12 (78-91) (human)
T15 construct: also called Peptide No. 12
T15 peptide: AQKTVEGAGSIAAA

T16: α-synuclein peptide 16 (106-119) (human)
T16 construct: also called Peptide No. 16
T16 peptide: GAPQEGILEDMPVD

T17: α-synuclein peptide 9 (57-70) (human)
T17 construct: also called Peptide No. 9
T17 peptide: EKTKEQVTNVGGAV

T18: α-synuclein peptide 18 (120-133) (human)
T18 construct: also called Peptide No. 18
T18 peptide: PDNEAYEMPSEEGY

T19: α-synuclein peptide 1 (1-14) (human)
T19 construct: also called Peptide No. 1
T19 peptide: MDVFMKGLSKAKEG

B1: Syn-O2 (antibody, IgG1, V domains shown)
VH: EVQLVESGGGLVQPKGSLKLSCAASGFTFNTYAMHWVRQAPGKGLEWVARIRSKSSNYATYYADSVKDRFTISRDDSQSMLYLQMNNLKTEDTAMYYCVRPLKWYFDVWGTGTTVTVSS
VL: QIVLTQSPAILSASPGEKVTMTCSASSTVNYMHWYQQKSGTSPKIWIYDTSKLASGVPARFSGSGSWTSYSLTISSMEAEDAATYYCQQWNSNPPTFGAGTKLELK
notes: same VH and VL as Syn-O1, Syn-O3, Syn-O4; also called mAb Syn-O2
B2: Syn-O3 (antibody, IgG1, V domains shown)
VH: B1 VH
VL: B1 VL
notes: same VH and VL as Syn-O1, Syn-O2, Syn-O4; also called mAb Syn-O3
B3: Syn-O4 (antibody, IgG1, V domains shown)
VH: B1 VH
VL: B1 VL
notes: same VH and VL as Syn-O1, Syn-O2, Syn-O3; also called mAb Syn-O4

Target: T1, IAPP fibrils
Assay: dot blot
Method: (§1) The membranes were blocked with 5% skimmed milk in PBST (PBS containing 0.05% Tween) and incubated for 1 h at room temperature. […] The membranes were washed and incubated with either 1/20000 diluted goat anti-mouse IgG-HRP (Jackson ImmunoResearch) or 1/10000 diluted goat anti-rabbit IgG-HRP (Jackson Immunoresearch) for 1 h at room temperature. The blots were then developed with Super signal West Pico chemiluminescent substrate.
(§2) C) To test the cross reactivity of our conformational monoclonal antibodies to different fragments of α-synuclein. […] The membranes were washed before incubating with either 1/20000 diluted goat anti-mouse IgG-HRP conjugate (Jackson Immunoresearch) or 1/300000 diluted chicken anti-goat IgG-HRP conjugate (Santa Cruz Biotechnology) for 1 h at room temperature. The blots were then developed with Super signal West Pico chemiluminescent substrate.

| Binder | binding result |
| --- | --- |
| B1 | no binding (tested: 50 ng/ml antibody, 50 ng spotted) |
| B2 | no binding (tested: 50 ng/ml antibody, 50 ng spotted) |
| B3 | no binding (tested: 50 ng/ml antibody, 50 ng spotted) |

These binders were tested against β-synuclein fibrils (UniProt Q16143 1-134) (assay: dot blot).
β-synuclein fibrils, sequence (Q16143 whole entry): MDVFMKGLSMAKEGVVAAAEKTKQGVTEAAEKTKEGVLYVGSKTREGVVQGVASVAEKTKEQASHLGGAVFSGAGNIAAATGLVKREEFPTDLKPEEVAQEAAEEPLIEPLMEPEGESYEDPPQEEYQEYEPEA
Method: as §1, §2

| Binder | binding result |
| --- | --- |
| B1 | no binding (tested: 50 ng spotted) |
| B2 | no binding (tested: 50 ng spotted) |
| B3 | no binding (tested: 50 ng spotted) |

The binders below were run against T20, fibrils of NAC (61-95) (human) (assay: dot blot).
T20 construct: also called NAC region (61-95) (F)
Method: as §1, §2

| Binder | binding result |
| --- | --- |
| B1 | no binding (tested: 50 ng spotted) |
| B2 | no binding (tested: 50 ng spotted) |
| B3 | no binding (tested: 50 ng spotted) |

Each binder was assayed against β-synuclein monomers (UniProt Q16143 1-134) (assay: dot blot).
β-synuclein monomers, sequence (Q16143 whole entry): as above
Method: as §1, §2

| Binder | binding result |
| --- | --- |
| B1 | no binding (tested: 50 ng spotted) |
| B2 | no binding (tested: 50 ng spotted) |
| B3 | no binding (tested: 50 ng spotted) |

Target: T2, IAPP monomers
Assay: dot blot
Method: as §1, §2

| Binder | binding result |
| --- | --- |
| B1 | no binding (tested: 50 ng/ml antibody, 50 ng spotted) |
| B2 | no binding (tested: 50 ng/ml antibody, 50 ng spotted) |
| B3 | no binding (tested: 50 ng/ml antibody, 50 ng spotted) |

What follows are binders tested against γ-synuclein monomers (UniProt O76070 1-127) (assay: dot blot).
γ-synuclein monomers, sequence (O76070 whole entry): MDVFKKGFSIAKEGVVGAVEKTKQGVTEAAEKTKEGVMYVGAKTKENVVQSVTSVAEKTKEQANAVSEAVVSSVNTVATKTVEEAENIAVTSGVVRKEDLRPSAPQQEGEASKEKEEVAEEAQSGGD
Method: as §1, §2

| Binder | binding result |
| --- | --- |
| B1 | no binding (tested: 50 ng spotted) |
| B2 | no binding (tested: 50 ng spotted) |
| B3 | no binding (tested: 50 ng spotted) |

What follows are binders tested against T21, A-beta fibrils (UniProt P05067 672-713, limits assumed) (assay: dot blot).
T21 construct: Amyloid fibrils of A-beta spotted in the dot blot; also called β-amyloid
Method: as §1, §2

| Binder | binding result |
| --- | --- |
| B1 | no binding (tested: 50 ng/ml antibody, 50 ng spotted) |
| B2 | no binding (tested: 50 ng/ml antibody, 50 ng spotted) |
| B3 | no binding (tested: 50 ng/ml antibody, 50 ng spotted) |

Target: T3, fibrils of NAC (61-78)
Assay: dot blot
Method: as §1, §2

| Binder | binding result |
| --- | --- |
| B1 | no binding (tested: 50 ng spotted) |
| B2 | no binding (tested: 50 ng spotted) |
| B3 | no binding (tested: 50 ng spotted) |

The binders below were run against T22, A-beta monomers (UniProt P05067 672-713, limits assumed) (assay: dot blot).
T22 construct: also called β-amyloid monomers
Method: as §1, §2

| Binder | binding result |
| --- | --- |
| B1 | no binding (tested: 50 ng/ml antibody, 50 ng spotted) |
| B2 | no binding (tested: 50 ng/ml antibody, 50 ng spotted) |
| B3 | no binding (tested: 50 ng/ml antibody, 50 ng spotted) |

What follows are binders tested against γ-synuclein fibrils (UniProt O76070 1-127) (assay: dot blot).
γ-synuclein fibrils, sequence (O76070 whole entry): as above
Method: as §1, §2

| Binder | binding result |
| --- | --- |
| B1 | no binding (tested: 50 ng spotted) |
| B2 | no binding (tested: 50 ng spotted) |
| B3 | no binding (tested: 50 ng spotted) |

Target: T4, α-synuclein peptide 3 (15-28)
Assay: pepscan ELISA
Method: (§3) To confirm the pepscan results using dot blot the mAbs were also tested by Pepscan using ELISA. […] The plate was washed with PBST and 50 μl of substrate (SuperSignal ELISA Femto Maximum Sensitivity Substrate, Thermo Scientific) was added and immediately read the plate using Victor X3 microtiter plate reader. After the ELISA signals were measured, the plate was also exposed onto X-ray film to develop the spots.

| Binder | binding result |
| --- | --- |
| B1 | no binding (tested: 100 ng/ml antibody, 500 ng/well peptide) |
| B2 | no binding (tested: 100 ng/ml antibody, 500 ng/well peptide) |
| B3 | no binding (tested: 100 ng/ml antibody, 500 ng/well peptide) |

Target: T5, α-synuclein peptide 14 (92-105)
Assay: pepscan ELISA
Method: as §3

| Binder | binding result |
| --- | --- |
| B1 | no binding (tested: 100 ng/ml antibody, 500 ng/well peptide) |
| B2 | no binding (tested: 100 ng/ml antibody, 500 ng/well peptide) |
| B3 | no binding (tested: 100 ng/ml antibody, 500 ng/well peptide) |

Target: T6, α-synuclein peptide 7 (43-56)
Assay: pepscan ELISA
Method: as §3

| Binder | binding result |
| --- | --- |
| B1 | no binding (tested: 100 ng/ml antibody, 500 ng/well peptide) |
| B2 | no binding (tested: 100 ng/ml antibody, 500 ng/well peptide) |
| B3 | no binding (tested: 100 ng/ml antibody, 500 ng/well peptide) |

Target: T7, α-synuclein peptide 6 (36-49)
Assay: pepscan ELISA
Method: as §3

| Binder | binding result |
| --- | --- |
| B1 | no binding (tested: 100 ng/ml antibody, 500 ng/well peptide) |
| B2 | no binding (tested: 100 ng/ml antibody, 500 ng/well peptide) |
| B3 | no binding (tested: 100 ng/ml antibody, 500 ng/well peptide) |

Target: T8, α-synuclein peptide 8 (50-63)
Assay: pepscan ELISA
Method: as §3

| Binder | binding result |
| --- | --- |
| B1 | no binding (tested: 100 ng/ml antibody, 500 ng/well peptide) |
| B2 | no binding (tested: 100 ng/ml antibody, 500 ng/well peptide) |
| B3 | no binding (tested: 100 ng/ml antibody, 500 ng/well peptide) |

Target: T9, α-synuclein peptide 13 (85-98)
Assay: pepscan ELISA
Method: as §3

| Binder | binding result |
| --- | --- |
| B1 | no binding (tested: 100 ng/ml antibody, 500 ng/well peptide) |
| B2 | no binding (tested: 100 ng/ml antibody, 500 ng/well peptide) |
| B3 | no binding (tested: 100 ng/ml antibody, 500 ng/well peptide) |

Target: T10, α-synuclein peptide 10 (64-77)
Assay: pepscan ELISA
Method: as §3

| Binder | binding result |
| --- | --- |
| B1 | no binding (tested: 100 ng/ml antibody, 500 ng/well peptide) |
| B2 | no binding (tested: 100 ng/ml antibody, 500 ng/well peptide) |
| B3 | no binding (tested: 100 ng/ml antibody, 500 ng/well peptide) |

Target: T11, α-synuclein peptide 17 (113-126)
Assay: pepscan ELISA
Method: as §3

| Binder | binding result |
| --- | --- |
| B1 | no binding (tested: 100 ng/ml antibody, 500 ng/well peptide) |
| B2 | no binding (tested: 100 ng/ml antibody, 500 ng/well peptide) |
| B3 | no binding (tested: 100 ng/ml antibody, 500 ng/well peptide) |

Target: T12, α-synuclein peptide 15 (99-112)
Assay: pepscan ELISA
Method: as §3

| Binder | binding result |
| --- | --- |
| B1 | no binding (tested: 100 ng/ml antibody, 500 ng/well peptide) |
| B2 | no binding (tested: 100 ng/ml antibody, 500 ng/well peptide) |
| B3 | no binding (tested: 100 ng/ml antibody, 500 ng/well peptide) |

Target: T13, α-synuclein peptide 2 (8-21)
Assay: pepscan ELISA
Method: as §3

| Binder | binding result |
| --- | --- |
| B1 | no binding (tested: 100 ng/ml antibody, 500 ng/well peptide) |
| B2 | no binding (tested: 100 ng/ml antibody, 500 ng/well peptide) |
| B3 | no binding (tested: 100 ng/ml antibody, 500 ng/well peptide) |

Target: T14, α-synuclein peptide 11 (71-84)
Assay: pepscan ELISA
Method: as §3

| Binder | binding result |
| --- | --- |
| B1 | no binding (tested: 100 ng/ml antibody, 500 ng/well peptide) |
| B2 | no binding (tested: 100 ng/ml antibody, 500 ng/well peptide) |
| B3 | no binding (tested: 100 ng/ml antibody, 500 ng/well peptide) |

Target: T15, α-synuclein peptide 12 (78-91)
Assay: pepscan ELISA
Method: as §3

| Binder | binding result |
| --- | --- |
| B1 | no binding (tested: 100 ng/ml antibody, 500 ng/well peptide) |
| B2 | no binding (tested: 100 ng/ml antibody, 500 ng/well peptide) |
| B3 | no binding (tested: 100 ng/ml antibody, 500 ng/well peptide) |

Target: T16, α-synuclein peptide 16 (106-119)
Assay: pepscan ELISA
Method: as §3

| Binder | binding result |
| --- | --- |
| B1 | no binding (tested: 100 ng/ml antibody, 500 ng/well peptide) |
| B2 | no binding (tested: 100 ng/ml antibody, 500 ng/well peptide) |
| B3 | no binding (tested: 100 ng/ml antibody, 500 ng/well peptide) |

Target: T17, α-synuclein peptide 9 (57-70)
Assay: pepscan ELISA
Method: as §3

| Binder | binding result |
| --- | --- |
| B1 | no binding (tested: 100 ng/ml antibody, 500 ng/well peptide) |
| B2 | no binding (tested: 100 ng/ml antibody, 500 ng/well peptide) |
| B3 | no binding (tested: 100 ng/ml antibody, 500 ng/well peptide) |

Target: T18, α-synuclein peptide 18 (120-133)
Assay: pepscan ELISA
Method: as §3

| Binder | binding result |
| --- | --- |
| B1 | no binding (tested: 100 ng/ml antibody, 500 ng/well peptide) |
| B2 | no binding (tested: 100 ng/ml antibody, 500 ng/well peptide) |
| B3 | no binding (tested: 100 ng/ml antibody, 500 ng/well peptide) |

Target: T19, α-synuclein peptide 1 (1-14)
Assay: pepscan ELISA
Method: as §3

| Binder | binding result |
| --- | --- |
| B1 | no binding (tested: 100 ng/ml antibody, 500 ng/well peptide) |
| B2 | no binding (tested: 100 ng/ml antibody, 500 ng/well peptide) |
| B3 | no binding (tested: 100 ng/ml antibody, 500 ng/well peptide) |
